Reference: patent US20160175358A1

Biological target: δ1 TCR on δ1 T-cells in PBMCs (human) (UniProt O00548)
Experiment: cell-based or functional assay

Chain of UniProt O00548 (O00548 18-723, stated change not applied): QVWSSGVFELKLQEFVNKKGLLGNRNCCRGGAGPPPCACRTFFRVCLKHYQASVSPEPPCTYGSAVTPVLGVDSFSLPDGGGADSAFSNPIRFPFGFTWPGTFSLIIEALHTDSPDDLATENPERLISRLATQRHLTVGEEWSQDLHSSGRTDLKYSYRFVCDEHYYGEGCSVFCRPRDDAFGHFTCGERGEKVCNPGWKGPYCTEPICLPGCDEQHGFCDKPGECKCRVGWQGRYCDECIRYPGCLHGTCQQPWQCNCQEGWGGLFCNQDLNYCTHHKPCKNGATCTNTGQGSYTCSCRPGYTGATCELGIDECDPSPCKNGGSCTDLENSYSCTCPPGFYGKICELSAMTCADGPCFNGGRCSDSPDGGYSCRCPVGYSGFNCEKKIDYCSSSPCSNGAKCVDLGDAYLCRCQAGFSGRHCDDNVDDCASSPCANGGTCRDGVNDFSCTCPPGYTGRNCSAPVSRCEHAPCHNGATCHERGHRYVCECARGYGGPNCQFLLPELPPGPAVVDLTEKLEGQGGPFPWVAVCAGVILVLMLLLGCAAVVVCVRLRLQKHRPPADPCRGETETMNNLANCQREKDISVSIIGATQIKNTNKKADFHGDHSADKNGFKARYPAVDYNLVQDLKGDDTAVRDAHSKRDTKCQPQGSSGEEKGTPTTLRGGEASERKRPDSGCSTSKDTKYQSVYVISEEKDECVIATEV

induced proliferation, relative to TS8.2: 3 fold
Substance: anti-TCR Vδ1 TS-1 antibody
